These are literature values, as cited in paper PMC6842113.

This series addresses PSD-95 PDZ3-SH3-GK (Homo sapiens) (UniProt P78352).

For SynGAP C-terminus (from UniProt Q9QUH6), the Kd – broadly, the constant that tells how readily two partners part at equilibrium – was 200 nM.
